Changes are numbered by the printed parent chain. Numbers in names are those of the source. Where “and” joins values, the source holds several entries; their conditions need not be identical. Equal entries are not always repeated. Values belong to the binder of their own block, whether it stands above or below them.
What was measured:
[1] = molecular target: the molecule itself; test: cryo-EM structure; full-length MgtE-Fab705 complex in PMAL-C8 amphipol, no Mg2+ or other divalent cations; 3.7 Å, C2 symmetry imposed
[2] = molecular target: the molecule itself; test: cross-linking; disulfide cross-linking with Cu2+ bis-1,10-phenanthroline, 0.5 mg/ml MgtE mutant in 20 mM HEPES pH 7.0, 150 mM NaCl, 0.05% DDM, MgCl2 gradient (0.01 to 30 mM), 4°C, non-reducing SDS-PAGE
[3] = molecular target: T1, full-length MgtE from Thermus thermophilus (Thermus thermophilus HB8 (ATCC 27634 / …, UniProt Q5SMG8)); test: ITC; Fab705 (25 uM) injected into the cell with full-length MgtE (about 2.5 uM monomer); 25°C; 20 mM HEPES pH 7.0, 150 mM NaCl, 0.05% DDM, 0 mM MgCl2; three repeats listed one by one; conditions: both partners purified
T1 construct: Mg2+ channel MgtE, Thermus thermophilus, full length; homodimer; In DDM micelles for ITC; source: E. coli C41 (DE3), purified (DDM solubilisation, Ni-NTA, HRV3C cleavage, SEC); not shown: His6, N-terminal, cleaved

[4] = molecular target: T2, full-length Thermus thermophilus MgtE (Thermus thermophilus, UniProt Q5SMG8); test: ITC; Fab705 (25 uM) injected into full-length MgtE (about 2.5 uM monomer) in the cell; 25°C; 20 mM HEPES pH 7.0, 150 mM NaCl, 0.05% DDM, 0 mM MgCl2; conditions: both partners purified
T2 construct: MgtE Mg2+ channel, Thermus thermophilus, full-length gene in a pET28a-derived vector with an N-terminal hexahistidine tag and an HRV3C site; the cryo-EM model holds only residues 271 to 448 (TM domain); Homodimer; also called wild-type MgtE; WT MgtE; source: E. coli C41 (DE3), purified (Ni-NTA, SEC) in DDM; for cryo-EM reconstituted in PMAL-C8 amphipol; not shown: His6, N-terminal, cleaved

- Kd [3]: 187 nM and 164 nM
- stoichiometry N [3]: 0.89 and 0.9 and 0.83
B3: Fab705 (Fab, V domains shown)
VH: EVKLQESGVELVKPGASVKISCKASGYSFTGYNMNWVKQSHGKSLEWIGNISPYYGTSIYNQNFKGKATLTVDRSSSTAYMQLNSLTSEDSAVYYCARGESFSNYEGYYAMDYWGQGTSVIVSS
VL: DVLMTQTPLSLPVSLGDQASISCRSSQSLVHSDGNTYLHWYLQKPGQSPKLLIYKVSNRFSGVPDRFSGSGSGTDFTLKISRVEAEDLGVYFCSQSTHVPWTFGGGTKLEIK
notes: heavy chain of Fab YN0705; in the deposited MgtE-Fab structure PDB 6LBH; light chain of Fab YN0705; Fab made by papain digestion of the mouse monoclonal IgG YN0705 raised against MgtE proteoliposomes; also called Fab YN0705; Fab antibody fragment Fab705; source: mouse hybridoma culture supernatant; IgG purified by protein G, digested with papain, Fab isolated by gel filtration and protein A …

- Kd [4]: 216 ± 52.7 nM
B4: Fab antibody fragment Fab705 (Fab, V domains shown)
VH: B3 VH
VL: B3 VL
notes: heavy chain of the mouse Fab YN0705; light chain of the mouse Fab YN0705; Fab made by papain digestion of the mouse monoclonal IgG YN0705 raised against MgtE proteoliposomes; also called Fab YN0705; YN0705; source: mouse hybridoma culture supernatant; IgG purified by protein G, digested with papain, Fab isolated by gel filtration and protein A chromatography

Continued, binder first:

B1: full-length Thermus thermophilus MgtE (natural protein, UniProt Q5SMG8 1-450, looked up)
chain: MEEKLAVSLQEALQEGDTRALREVLEEIHPQDLLALWDELKGEHRYVVLTLLPKAKAAEVLSHLSPEEQAEYLKTLPPWRLREILEELSLDDLADALQAVRKEDPAYFQRLKDLLDPRTRAEVEALARYEEDEAGGLMTPEYVAVREGMTVEEVLRFLRRAAPDAETIYYIYVVDEKGRLKGVLSLRDLIVADPRTRVAEIMNPKVVYVRTDTDQEEVARLMADYDFTVLPVVDEEGRLVGIVTVDDVLDVLEAEATEDIHKLGAVDVPDLVYSEAGPVALWLARVRWLVILILTGMVTSSILQGFESVLEAVTALAFYVPVLLGTGGNTGNQSATLIIRALATRDLDLRDWRRVFLKEMGVGLLLGLTLSFLLVGKVYWDGHPLLLPVVGVSLVLIVFFANLVGAMLPFLLRRLGVDPALVSNPLVATLSDVTGLLIYLSVARLLLEAV
notes: MgtE Mg2+ channel, Thermus thermophilus, full-length gene in a pET28a-derived vector with an N-terminal hexahistidine tag and an HRV3C site; the cryo-EM model holds only residues 271 to 448 (TM domain); Homodimer; also called wild-type MgtE; WT MgtE; source: E. coli C41 (DE3), purified (Ni-NTA, SEC) in DDM; for cryo-EM reconstituted in PMAL-C8 amphipol; not shown: His6, N-terminal, cleaved
- stoichiometry N [1]: 2

B2: MgtE double cysteine mutant T336C/L421C (natural protein, Thermus thermophilus, UniProt Q5SMG8 1-450, looked up)
chain: B1 chain with T336C, L421C
notes: MgtE Mg2+ channel, Thermus thermophilus, with two cysteine substitutions; wild-type MgtE has no endogenous cysteine; source: E. coli C41 (DE3), purified as the wild type, with 20 mM DTT added before its removal by SEC; not shown: His6, N-terminal, cleaved
- binding result [2]: binds

— paper PMC8104411, “The structure of MgtE in the absence of magnesium provides new insights into channel gating” (PLoS Biology, 2021)
